# Experiments:
# [1] = biological target: endogenous cellular PCNA (cell lysates, permeabilised cells, FFPE tissue) (human) (UniProt P12004); test: image stream of HeLa cells, similarity of the AF488 antibody stain to the 7AAD nuclear stain; 190 of 3950 cells
# [2] = biological target: NKp44 isoform 1 (NKp44-1) on NK92-44-1 cells (Homo sapiens (Human)) (UniProt O95944); test: cell-based or functional assay
# [3] = biological target: NKp44 isoform 3 (NKp44-3) on NK92-44-3 cells (UniProt O95944); test: cell-based or functional assay
# [4] = biological target: NKp44 isoform 2 (NKp44-2) on NK92-44-2 cells (UniProt O95944); test: cell-based or functional assay
# UniProt P12004, sequence (P12004 whole entry, canonical isoform): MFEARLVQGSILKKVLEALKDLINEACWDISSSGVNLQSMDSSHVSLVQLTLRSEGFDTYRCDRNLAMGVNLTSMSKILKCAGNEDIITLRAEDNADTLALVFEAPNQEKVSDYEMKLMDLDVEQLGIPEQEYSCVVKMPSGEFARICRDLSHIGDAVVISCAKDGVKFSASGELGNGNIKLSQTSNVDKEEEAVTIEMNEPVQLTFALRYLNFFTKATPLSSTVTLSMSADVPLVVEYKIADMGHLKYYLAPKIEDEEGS
%Gated in the gate 'Cytoplasmic PCNA' [1],relative amount of F-actin accumulating at the immune synapse [2],relative amount of F-actin accumulating at the immune synapse [3],relative amount of F-actin accumulating at the immune synapse [4],Substance
4.81%,–,–,–,commercial anti PCNA mAb clone PC10 (antibody)
–,-22.6%,4.6%,6.9%,PCNA over-expressed in HeLa target cells (from UniProt P12004 1-261)

# Source: patent US20210032320A1
